The target of the assay is anti-METH single chain antibody fragment scFv6H4. The experiment in a line: crystal structure; apo scFv6H4, hanging drop; protein 14 mg/ml in 5 mM HEPES, 100 mM NaCl, 1 mM NaN3, pH 8.0; reservoir 1.6 M ammonium sulfate, 240 mM imidazole malate, pH 8.0; space group P2(1)3, one molecule in the asymmetric unit; trimer formed by the crystallographic 3-fold axis, with a Ni2+ ion and a sulfate on the axis.

B1: anti-METH single chain antibody fragment scFv6H4 (scFv, V domains shown)
VH: EVQLQESGPSLVKPSQTLSLTCSVTGDSVTSGYWSWIRQFPGNKLDYMGYISYRGSTYYNPSLKSRISITRDTSKNQVYLQLKSVSSEDTATYYCSYFDSDDYAMEYWGQGTSVTVSG
VL: QIVLTQSPAIMSASPGEKVTLTCSASSSVSSSHLYWYQQKPGSSPKLWIYSTSNLASGVPARFSGSGSGTSYSLTISSMEAEDAASYFCHQWSSFPFTFGSGTKLEIK
The stoichiometry N is a count of units in the complex or per binding partner. B1 registered a stoichiometry N of 3.

Values taken from paper PMC3857803.
